The values below come from patent US20140120095A1 (Boehringer Ingelheim, published 2014).

Where a chain is given by its changes, count along the chain named.

For orientation: koff means the rate constant with which the complex falls apart.

Experiment [1] deals with T1, human DLL4 overexpressed on cells (human, UniProt Q9NR61 27-685).
T1 construct: full length human DLL4 on CHO or HEK293 cells; also called CHO-hDLL4; CHO-hDII4
Nature of the experiment: FMAT, labelled hNotch1-Fc on CHO-hDLL4, periplasmic extract. The text has this:
(§1) All calculations are based on the FL1_total signal which comprises the average of the fluorescence per well times the number of counts per well.

Experiment [2] concerns the target T2, mouse DLL4 overexpressed on cells (mouse, UniProt Q9JI71 27-686).
T2 construct: whole, on cells; also called CHO-mDLL4; CHO-mDII4
Nature of the experiment: FMAT, labelled hNotch1-Fc on CHO-mDLL4, periplasmic extract.
Source text: as §1

The target in experiment [3] is T3, recombinant human DLL4 (C-terminally His-tagged extracellular domain, R&D Systems) (human, UniProt Q9NR61 25-522, biotinylated in the competition ELISA).
T3 construct: also called rhDLL4; hDLL4
Nature of the experiment: ProteOn off-rate screen, periplasmic extract, coated human DLL4. The protocol:
(§2) In a first cycle, amino acid substitutions are introduced randomly in both framework (FW) and complementary determining regions (CDR) using the error-prone PCR method. […] After a polish step, PCR products are inserted via unique restriction sites into a vector designed to facilitate phage display of the VHH library. Consecutive rounds of in-solution selections are performed using decreasing concentrations of biotinylated recombinant human DLL4 (biot-rhDLL4) and trypsin elutions. Affinity-driven selections in a third round using cold rhDLL4 (at least 100× excess over biot-rhDLL4) are also performed. No selections on murine DLL4 are included as (conservation of) cross-reactivity is assessed at the screening level. Individual mutants are produced as recombinant protein using an expression vector derived from pUC119, which contains the LacZ promoter, a resistance gene for ampicillin, a multiple cloning site and an ompA leader sequence (pAX50). E. coliTG1 cells are transformed with the expression vector library and plated on agar plates (LB+Amp+2% glucose). Single colonies are picked from the agar plates and grown in 1 mL 96-deep-well plates. VHH expression is induced by adding IPTG (1 mM). Periplasmic extracts (in a volume of ˜80 uL) are prepared according to standard methods and screened for binding to recombinant human and mouse DII4 in a ProteOn (BioRad, Hercules, Calif., USA) off-rate assay. In brief, a GLC ProteOn Sensor chip is coated with recombinant human DII4 on the “ligand channels” L2 and L4 (with L1/L3 as reference channel), while “ligand channels” […] is coated with mouse DII4. Periplasmic extract of affinity-matured clones is diluted 1/10 and injected across the “analyte channels” A1-A6. An average off-rate is calculated of the wild type clones present in the plate and served as a reference to calculate off-rate improvements.

Experiment [4] deals with T4, recombinant mouse DLL4 (C-terminally His-tagged extracellular domain, R&D Systems) (mouse, UniProt Q9JI71 27-532).
T4 construct: extracellular domain; also called rmDLL4; mDLL4
Nature of the experiment: ProteOn off-rate screen, periplasmic extract, coated mouse DLL4. The protocol: as §2

T2 sequence (Q9JI71 27-686): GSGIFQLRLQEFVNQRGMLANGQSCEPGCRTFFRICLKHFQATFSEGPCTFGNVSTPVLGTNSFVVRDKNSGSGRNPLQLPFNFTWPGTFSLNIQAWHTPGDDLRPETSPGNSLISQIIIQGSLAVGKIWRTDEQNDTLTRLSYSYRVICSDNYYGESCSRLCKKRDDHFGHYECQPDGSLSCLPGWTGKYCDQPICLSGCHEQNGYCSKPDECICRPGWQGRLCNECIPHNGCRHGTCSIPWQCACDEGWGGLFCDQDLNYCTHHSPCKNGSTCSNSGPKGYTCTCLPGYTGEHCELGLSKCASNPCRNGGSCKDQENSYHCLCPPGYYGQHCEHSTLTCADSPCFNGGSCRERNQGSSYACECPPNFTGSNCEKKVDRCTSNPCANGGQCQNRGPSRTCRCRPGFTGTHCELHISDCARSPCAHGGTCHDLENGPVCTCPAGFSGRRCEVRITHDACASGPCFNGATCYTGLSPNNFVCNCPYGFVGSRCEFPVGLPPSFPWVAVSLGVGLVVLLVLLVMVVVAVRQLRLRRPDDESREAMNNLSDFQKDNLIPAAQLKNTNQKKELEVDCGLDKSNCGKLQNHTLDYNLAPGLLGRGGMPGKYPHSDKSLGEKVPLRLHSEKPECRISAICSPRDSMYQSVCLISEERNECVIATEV
T4 sequence (Q9JI71 27-532): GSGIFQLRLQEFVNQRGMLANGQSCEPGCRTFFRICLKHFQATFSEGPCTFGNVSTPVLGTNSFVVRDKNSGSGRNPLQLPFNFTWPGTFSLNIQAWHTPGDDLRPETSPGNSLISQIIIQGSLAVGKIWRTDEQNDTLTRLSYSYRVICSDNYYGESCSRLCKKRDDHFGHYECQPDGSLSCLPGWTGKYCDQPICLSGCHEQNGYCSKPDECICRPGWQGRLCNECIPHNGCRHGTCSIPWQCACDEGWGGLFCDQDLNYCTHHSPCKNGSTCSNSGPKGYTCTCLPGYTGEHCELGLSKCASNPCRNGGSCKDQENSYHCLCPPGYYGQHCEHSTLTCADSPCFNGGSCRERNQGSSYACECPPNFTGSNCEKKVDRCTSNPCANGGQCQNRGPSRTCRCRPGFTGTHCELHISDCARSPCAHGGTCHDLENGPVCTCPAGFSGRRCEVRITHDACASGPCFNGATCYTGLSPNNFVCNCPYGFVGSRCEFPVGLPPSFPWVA

B1: DLLBII101H09 (VHH)
VHH: EVQLVESGGGLVQPGGSLRLSCAASGFTLGYYTIVWFRQAPGKERKGVSCISSRDGSRYYADSVKGRFTISRDNAKNTVYLRMNSLKPEDTAVYYCAAGPDCSSYDYWGQGTQVTVSS
Consider B1, for which the “% inh” value was determined as 87% in experiment [1] and 75% in experiment [2].

B2: DLLBII102F08 (VHH)
VHH: EVQLVESGGGLVQTGDSLRLSCAASGSTFSNYRMGWFRQGPGKEREFVAAIGRNGQNTYYTDSVKGRFTVTRDNAKNMVYLQMNSLKPEDSAVYTCAASLRGWDTTRIDYEYWGQGTQVTVSS
With B2, the “% inh” value in experiment [1] was determined as 85%; in experiment [2], 75%.

B3: DLLBII107C03 (VHH)
VHH: EVQLVESGGGLVQPGGSLRLSCEVSGSIGSVSDMRWYRQAPGLQYELVARITSGSITDYSDSVKGRFTISRDNAKNTVYLQMNSLKPEDTAVYYCNADVQHSAWLKPLTYWGQGTQVTVSS
On to B3, for which the “% inh” value in experiment [1] was found to be 75%; in experiment [2] it was 80%.

B4: DLLBII112E07 (VHH)
VHH: EVQLVESGGGLVQAGGSLRLSCAASGRTVRSYATGWFRQAPGKEREFVAALRWSIGSIASVYYDDSVKGRFTISGDNAENTVYLQMNALKPEDTAIYYCASTTRGRYSALSASAYDYWGQGTQVTVSS
Consider B4, for which the “% inh” value stood at 80% in experiment [1] and 85% in experiment [2].

B5: DLLBII102G04 (VHH)
VHH: EVQLMESGGGLVQPGGSLRLSCAASGFTFSSYAMSWVRQAPGKGLEWVSRITSGGRTTYRDSVKGRFTISRDNSKNTLYLQMNSLKPEDTALYYCAKARGDIDVYTLSDSRGQGTQVTVSS
Take B5: the results for the “% inh” value in experiment [1] and in experiment [2] were 86% and 82%, respectively.

B6: DLLBII47D01 (VHH)
VHH: EVQLVESGGGLVQPGGSLRLSCAASGFTFDDYAIGWFRQAPGKEREGVSCISSSGSTYYADSVKGRFTISRDNAKNTVYLQMNSLKPEDTAVYYCAIAGASSWCFPPGYWGQGTQVTVSS
As for B6, the “% inh” value in experiment [1] worked out at 87%.

B7: DLLBII104A03 (VHH)
VHH: EVQLVESGGGLVQAGGSLRLSCAASGDIPRIAAMGWYRQAPGKQRELVATVSNAATTRYADSAKGRFTISRDNAKTVSLQMDNLKPEDTGVYYCYSLATTVTPSWVNYWGQGTQVTVSS
B7: the “% inh” value was 86% in experiment [1] and 83% in experiment [2].

B8: DLLBII129H04 (VHH)
VHH: EVQLVESRGGLVQAGGSLRLSCAASGRTFSSYAMAWFRQAPGKEREYVAAIRWSGGTAYYADSVQGRFTISRDNAKNTVYLQMNSLKPEDTAVYYCANRAPDTRLEPYLYDHWGQGTQVTVSS
For B8, in experiment [3], the “fold (off-rate vs DLLBII101G08)” value came out at 33 fold and the koff was 6.8e-05 s⁻¹. Further, in experiment [4], the “fold (off-rate vs DLLBII101G08)” value was determined as 27 fold and the koff worked out at 0.00025 s⁻¹.

B9: DLLBII130A05 (VHH)
VHH: B8 VHH with R8G, F37Y, E106G
For the molecule B9, the “fold (off-rate vs DLLBII101G08)” value turned out to be 24 fold in experiment [3] and 17 fold in experiment [4]. The koff was determined as 7.5e-05 s⁻¹ in experiment [3] and 0.0003 s⁻¹ in experiment [4].

B10: DLLBII130E03 (VHH)
VHH: B8 VHH with R8G, F37Y, L109E
On to B10, for which the results for the “fold (off-rate vs DLLBII101G08)” value in experiment [3] and in experiment [4] were 24 fold and 18 fold, respectively. Besides, the koff was 7.5e-05 s⁻¹ in experiment [3] and 0.00027 s⁻¹ in experiment [4].

B11: DLLBII129H05 (VHH)
VHH: B8 VHH with R8G, F37Y, Q39L, E106G, H112Y
As to B11, in experiment [3], the “fold (off-rate vs DLLBII101G08)” value was 24 fold and the koff is 9.4e-05 s⁻¹. In experiment [4], the “fold (off-rate vs DLLBII101G08)” value was 19 fold and the dissociation rate constant (koff) turned out to be 0.00035 s⁻¹.

B12: DLLBII129G10 (VHH)
VHH: B8 VHH with R8G, F37Y, G66S, L109E
B12: in experiment [3], the “fold (off-rate vs DLLBII101G08)” value worked out at 31 fold and the koff stood at 7.3e-05 s⁻¹. Further, in experiment [4], the “fold (off-rate vs DLLBII101G08)” value was found to be 26 fold and the koff was determined as 0.00026 s⁻¹.

B13: DLLBII129E03 (VHH)
VHH: B8 VHH with R8G, E44D, E106A, H112Y
Consider B13, for which, in experiment [3], the “fold (off-rate vs DLLBII101G08)” value is 20 fold and the koff was 0.00011 s⁻¹. Besides, in experiment [4], the “fold (off-rate vs DLLBII101G08)” value amounted to 18 fold and the koff was determined as 0.00036 s⁻¹.

B14: DLLBII129H02 (VHH)
VHH: B8 VHH with R8G, F37Y, E106R, L109E, H112Y
B14: the results for the “fold (off-rate vs DLLBII101G08)” value in experiment [3] and in experiment [4] were 23 fold and 19 fold, respectively. Also, the off-rate (koff) is 9.9e-05 s⁻¹ in experiment [3] and 0.00034 s⁻¹ in experiment [4].

B15: DLLBII129E07 (VHH)
VHH: B8 VHH with R8G, A23S, F37Y, A61P, E106A, L109E
Regarding B15, in experiment [3], the “fold (off-rate vs DLLBII101G08)” value turned out to be 21 fold and the koff is 0.00011 s⁻¹. In experiment [4], the “fold (off-rate vs DLLBII101G08)” value worked out at 24 fold and the koff came to 0.00028 s⁻¹.

B16: DLLBII129B02 (VHH)
VHH: B8 VHH with R8G, R19S, F37Y, L109E
Turning to B16, in experiment [3], the “fold (off-rate vs DLLBII101G08)” value amounted to 30 fold and the koff came out at 7.6e-05 s⁻¹. In addition, in experiment [4], the “fold (off-rate vs DLLBII101G08)” value was found to be 26 fold and the koff came to 0.00026 s⁻¹.

B17: DLLBII129D01 (VHH)
VHH: B8 VHH with R8G, G66S, S71T
For the molecule B17, in experiment [3], the “fold (off-rate vs DLLBII101G08)” value amounted to 26 fold and the koff is 8.5e-05 s⁻¹. Moreover, in experiment [4], the “fold (off-rate vs DLLBII101G08)” value was 26 fold and the koff worked out at 0.00026 s⁻¹.

B18: DLLBII130B02 (VHH)
VHH: B8 VHH with R8G, N84Y, E106A
Regarding B18, in experiment [3], the “fold (off-rate vs DLLBII101G08)” value is 23 fold and the koff was found to be 7.8e-05 s⁻¹. For the same molecule, in experiment [4], the “fold (off-rate vs DLLBII101G08)” value worked out at 17 fold and the koff is 0.00029 s⁻¹.

B19: DLLBII129G09 (VHH)
VHH: B8 VHH with R8G, F37Y, G56E
For the molecule B19, in experiment [3], the “fold (off-rate vs DLLBII101G08)” value is 26 fold and the koff amounted to 8.8e-05 s⁻¹. For the same molecule, in experiment [4], the “fold (off-rate vs DLLBII101G08)” value was found to be 20 fold and the koff came out at 0.00034 s⁻¹.

B20: DLLBII130D06 (VHH)
VHH: B8 VHH with R8G, A23S, F37Y, G56E
B20: in experiment [3], the “fold (off-rate vs DLLBII101G08)” value stood at 26 fold and the koff stood at 6.9e-05 s⁻¹. In addition, in experiment [4], the “fold (off-rate vs DLLBII101G08)” value was 16 fold and the koff is 0.00031 s⁻¹.

B21: DLLBII130B04 (VHH)
VHH: B8 VHH with R8G, E106R
Take B21: in experiment [3], the “fold (off-rate vs DLLBII101G08)” value was 22 fold and the koff came out at 8.3e-05 s⁻¹. For the same molecule, in experiment [4], the “fold (off-rate vs DLLBII101G08)” value worked out at 17 fold and the koff came to 0.00029 s⁻¹.

B22: DLLBII104B05 (VHH)
VHH: EVQLVESGGGSVQAGGSLRLSCAASGSISRIDVMAWYRQAPGKERELVASISSGGSTNYADSVKGRFTISREYFKNMMYLQMNSLKFEDTAVYYCNADSRRGGVGNFFRSWGQGTQVTVSS
As to B22, the “% inh” value came out at 86% in experiment [1] and 78% in experiment [2].

B23: DLLBII101H05 (VHH)
VHH: EVQLVESGGGSAQAGGSLRLSCAASGRTSSTYAMGWFRQAPGKEHEFVSAIGRGTGATSYGDSVKGRFTISRDNAKNTVYLQMNSLQLEDTGDYYCVAGRGFYHDYSSYEYRGQGTQVTVSS
Turning to B23, the “% inh” value in experiment [1] is 85%; in experiment [2], 83%.

B24: DLLBII112A03 (VHH)
VHH: EVQLVESGGGLVQPGGSLRLSCAASGIRFSINGMGWYRQAPGKQREAVATITRGGIRDYTDSVKGRFTISRDIARNTVYLQMNNLKPEDSAVYYCNIDIYWGRGTQVTVSS
For the molecule B24, the “% inh” value came out at 72% in experiment [1] and 97% in experiment [2].

B25: DLLBII112A04 (VHH)
VHH: EVQLVESGGGLVQAGGSLRLSCAAFGRTPYGMGWFRQAPGKEREFVAAITSDGSTNYADSVKGRFTISRDNAKNAVSLQMNSLKPEDTAVYYCTAPYYSDFEGTTTEYDYWGQGTQVTVSS
On to B25, for which the “% inh” value in experiment [1] turned out to be 75%; in experiment [2], 90%.
